Results taken from patent US20260263521A1, “ANTI-CD200R1 ANTIBODY AND USE THEREOF” (AIMED BIO INC., priority 2023, published 2026).

T1: human CD200R1 (Homo sapiens, UniProt Q8TD46)
T1 sequence (Q8TD46 25-348): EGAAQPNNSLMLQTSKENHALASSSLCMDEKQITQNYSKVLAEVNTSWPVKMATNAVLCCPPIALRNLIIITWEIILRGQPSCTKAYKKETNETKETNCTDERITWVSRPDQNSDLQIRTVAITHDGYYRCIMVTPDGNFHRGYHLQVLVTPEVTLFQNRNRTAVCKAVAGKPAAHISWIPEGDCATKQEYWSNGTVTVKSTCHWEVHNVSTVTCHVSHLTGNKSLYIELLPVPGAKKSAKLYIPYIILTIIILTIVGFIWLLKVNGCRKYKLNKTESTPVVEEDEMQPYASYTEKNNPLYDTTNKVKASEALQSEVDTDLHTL

B1: P001009: phage display anti-CD200R1 clone; VH SEQ ID NO: 79, VL SEQ ID NO: 94 (antibody, V domains shown)
VH: EVQLLESGGGLVQPGGSLRLSCAASGFTFSSYDMSWVRQAPGKGLEWVSWISHGGGSIYYADSVKGRFTISRDNSKNTLYLQMNSLRAEDTAVYYCARDAPAYSAPLFDYWGQGTLVTVSS
VL: QSVLTQPPSASGTPGQRVTISCSGSSSNIGNNAVNWYQQLPGTAPKLLIYYDSNRPSGVPDRFSGSKSGTSASLAISGLRSEDEADYYCAAWDDSLSGYVFGGGTKLTVL
B2: P001009v1: P001009 variant, LC S52 and LC S94 substituted with K and R; VH SEQ ID NO: 79 (antibody, V domains shown)
VH: EVQLLESGGGLVQPGGSLRLSCAASGFTFSSYDMSWVRQAPGKGLEWVSWISHGGGSIYYADSVKGRFTISRDNSKNTLYLQMNSLRAEDTAVYYCARDAPAYSAPLFDYWGQGTLVTVSS
VL: QSVLTQPPSASGTPGQRVTISCSGSSSNIGNNAVNWYQQLPGTAPKLLIYYDKNRPSGVPDRFSGSKSGTSASLAISGLRSEDEADYYCAAWDDRLSGYVFGGGTKLTVL

Key:
[1] = tested on: Dok2 phosphorylation in Jurkat-CD200R1 cells; assay: Dok2 protein phosphorylation, Jurkat-CD200R1 reporter cells (PathHunter); assay type: cell-based, human; details: for RLU: Jurkat-CD200R1 reporter cells, Fc capture antibody
Description: Jurkat-CD200R1 cells were maintained as shown in Example 17 and were then seeded in triplicate onto CulturePlate-384, a White Opaque 384-well microplate (PerkinElmer, #6007688) at a density of 8,000 cells/well (32 μl). AssayComplete Cell Plating 0 Reagent (DiscoverX, #93-0563ROA) was used for cell plating and antibody dilution. The seeded cells were incubated at 37° C. and 5% CO2 for 30 minutes.
During the reaction, an Fc capture antibody, anti-human IgG (Fc-specific) antibody produced in goat (Sigma Aldrich, #12136, 2.3 mg/ml), was diluted in AssayComplete media and incubated at 37° C., 5% CO2 for 30 minutes. After incubation of both the plate containing the cells and the Fc capture antibody, the cells were treated with the Fc capture antibody at a concentration of 50 μg/ml per well. The reaction was incubated for 3 hours at 37° C., 5% CO2. After cross-reactivity with the Fc capture antibody, the cells were treated with a total of three antibodies, as shown in Example 17. The cells were diluted two-fold from a maximum concentration of 50 nM to 25 nM, 12.5 nM, 6.25 nM, 3.12 nM, 1.56 nM, 0.78 nM, 0.39 nM, 0.20 nM, 0.098 nM, and 0.049 nM. After treatment, the result was reacted at room temperature for an additional 2 hours.
The PathHunter Detection kit (DiscoverX, #93-0001) was used to confirm the response of the treated antibodies to the Jurkat-CD200R1 reporter cell line. Final data were analyzed using an Infinite M200 Pro Plate reader (Tecan) to measure the luminescence from phosphorylated Dok2. […] luminescence unit (RLU) is an arbitrary unit representing luminescence, calculated by converting the signal detected by a cross-linked Fc capture antibody.

[2] = tested on: IL-6 in U937-CD200R1 cells; assay: IL-6 suppression in LPS-treated U937-CD200R1 cells (AlphaLISA); assay type: cell-based, human; details: for IL-6: LPS-treated U937-CD200R1 cells, 24 h
Description: To determine the binding ability of the candidates to U937-CD200R1-overexpressing cell lines and verify the efficacy thereof, the anti-inflammatory effect of anti-CD200R1 antibodies was analyzed. First, 5×10^6 U937-CD200R1 cells were added to 12 ml of medium, treated with 30 ng/ml of Phorbol 12-myristate 13-acetate (Sigma Aldrich, #P1585), and reacted at 37° C. in 5% CO2 for 24 hours. After reaction, the medium was replaced with RPMI 1640 medium containing only 10% heat-inactivated FBS, and 5×10^6 cells were maintained at 37° C. in 5% CO2 for 24 hours.
Cells were seeded on duplicate onto 96-well round-bottom plates (SPL, #34296) at 1×10^5 cells/50 μl/well. P001009 WT, P001009v1, and the previously published CD200R antibody LY3454738 (US 2020/0087395, I-4P, Eli Lilly) as a positive control were used in this experiment. The drug was serially diluted 10-fold from a maximum concentration of 100 nM and treated to the cells at concentrations of 10 nM, 1 nM, […], respectively. Additional cells were treated with 100 nM of hIgG4 kappa isotype control (Crownvivo, #C0004) as a negative control. Untreated cells were seeded in the same amount of medium (RPMI 1640 containing 10% heat-inactivated FBS) and incubated at 37° C., 5% CO2 for 1 hour. To induce an inflammatory response in drug-treated cells, each well was treated with 10 μl of lipopolysaccharide from Salmonella typhosa (Sigma Aldrich, #L7895) at a concentration of 1 μg/ml. One well was left untreated to assess the induction of inflammatory cytokines. After thorough mixing, the cells were incubated at 37° C. and 5% CO2 for 24 hours.
After centrifugation at 1100 g for 2 minutes, images of the pellets before and after LPS treatment were captured using a microscope (Carl Zeiss, AXIO VERT.A1). After LPS treatment, the pellet appeared as scattered debris (FIG. 18B) rather than uniform spheroids (FIG. 18A). This was observed under a microscope. The supernatant was collected and analyzed for inflammatory cytokines such as TNF-α and IL-6 using an EnVision® multimode plate reader (PerkinElmer). A bead-based cytokine assay was performed using the AlphaLISA immunoassay on the EnVision® instrument. TNF-α(human) AlphaLISA Detection Kit, 500 assay points (PerkinElmer, #AL208C) was used for TNF-α, and the IL-6 (human) AlphaLISA Detection Kit, 500 assay points (PerkinElmer, #AL223C) was used for IL-6. Cytokine levels were determined depending on the concentration of each antibody.

human CD200R1 = target: T1, human CD200R1; assay: SPR binding kinetics, human CD200R1; details: hCD200R1-his captured on anti-His CM5 chip, 1:1 Langmuir fit
Description: The CD200R1-specific binding ability of the antibodies (P001009 wt, P001009 v1, P001009 v2, P001009 v3, P001009 v4) selected in Example 14 was analyzed using surface plasma resonance (SPR). For the experiment, 30 μg/mL of an anti-histidine antibody was conjugated to a CM5 biacore chip via an amine bond while allowing to flow at 10 μl/min (10,000 RU). Then, 0.25 μg/mL of human or cynomolgus CD200R1 with dual His-tags was captured onto the completed chip for 60 seconds, and the binding ability of each antibody was analyzed. All experiments were performed by association of antibodies for 120 seconds and dissociation of antibodies for 600 seconds. The resulting graphs were fitted using a 1:1 Langmuir binding kinetic model (FIG. 16), and the kinetics of each antibody were calculated.

Row | Molecule | luminescence due to phosphoDok2 [1] | RLU ([1]; antibody dose 0.05 nM) [a.u.] | RLU ([1]; antibody dose 0.10 nM) [a.u.] | RLU ([1]; antibody dose 0.20 nM) [a.u.] | RLU ([1]; antibody dose 0.39 nM) [a.u.] | RLU ([1]; antibody dose 0.78 nM) [a.u.] | RLU ([1]; antibody dose 1.56 nM) [a.u.] | RLU ([1]; antibody dose 3.13 nM) [a.u.] | RLU ([1]; antibody dose 6.25 nM) [a.u.] | RLU ([1]; antibody dose 12.5 nM) [a.u.] | RLU ([1]; antibody dose 25 nM) [a.u.] | RLU ([1]; antibody dose 50 nM) [a.u.] | IL-6 ([2]; log [Ab] (M) −7) [pg/mL] | IL-6 ([2]; log [Ab] (M) −8) [pg/mL] | IL-6 ([2]; log [Ab] (M) −9) [pg/mL] | IL-6 ([2]; log [Ab] (M) −10) [pg/mL] | IL-6 ([2]; log [Ab] (M) −11) [pg/mL] | IL-6 ([2]; log [Ab] (M) −12) [pg/mL] | Ka (human CD200R1) [M⁻¹ s⁻¹] | IL-6 level ([2]; low nanomolar (nM) drug concentrations)
1 | B1 | exhibited luminescence due to phosphoDok2 | 10432 ± 2166 | 10359 ± 1227 | 15184 ± 2826 | 10861 ± 917 | 25264 ± 1484 | 33140 ± 5780 | 41203 ± 4810 | 56115 ± 6866 | 57733 ± 6385 | 50858 ± 8029 | 37120 ± 14299 | 231.7 ± 24.1 | 401.5 ± 9.6 | 1245.6 ± 49.9 | 3398.1 ± 325.5 | 3751.0 ± 144.5 | 4512.7 ± 74.1 | 2.81e+06 | –
2 | B2 | exhibited luminescence due to phosphoDok2 | 9521 ± 1128 | 10677 ± 2258 | 17866 ± 1925 | 11340 ± 509 | 28644 ± 4755 | 32863 ± 4207 | 29729 ± 3825 | 48879 ± 1315 | 45830 ± 6990 | 53185 ± 13281 | 32676 ± 5379 | 153.7 ± 8.8 | 165.1 ± 8.4 | 454.2 ± 45 | 2439 ± 56.8 | 3517.7 ± 166.3 | 4730.2 ± 99.8 | 4.77e+06 | maintained low inflammatory cytokine levels
